Experimental data published in the supplement of paper PMC10567573.

B1: KRT18 (parent)
chain: RVRSLETENRRLESKIREHLEKKG
B2: PKD2L1 (parent)
chain: VFIFYYVVEEILELHIHRLRYLSS

Variants of: B1
Assay: protein stability index of a GFP-peptide fusion (GPS, HEK-293T) (PSI 1-6); higher = more stable
Conditions: c terminus: a fixed tail appended
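Also: lentivirally expressed fusions sorted by FACS into six bins by GFP to DsRed ratio, PSI derived from sequencing read proportions per bin multiplied by bin number.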

Variant	protein stability index
R17M	4.53
R17C	5.24
R17H	5.06
R17T	5
R17I	4.37
R17N	4.25
R17F	4.55
R17L	4.22
K15R	4.67
K15E	5.16
K15A	4.53
K15D	3.69
K15W	3.1
K15L	3.88
K15F	3.04
K15S	5.16
K15C	4.06
K15I	4.41
K15T	4.76
K15P	5.23
K15Y	4.7
K15N	5.24

Variant	protein stability index
K15Q	4.56
K15H	3.6
K15M	4.02
N9G	3.48
N9E	4.97
N9I	2
N9F	2.3
N9M	2.85
N9A	2.73
N9R	3.81
N9V	1.9
N9W	1.85
N9D	5.09
N9Y	3.85
N9L	1.79
N9Q	4.74
N9H	4.51
E8M	4.32
E8R	3.46
E8T	4.2
E8Y	3.82
E8Q	3.38

Variant	protein stability index
L12N	5.35
L12I	4.77
L12G	5.35
L12Y	4.91
L12C	4.78
L12K	5.49
L12P	5.41
L12T	5.22
L12V	4.69
L12M	3.02
L12D	4.21
L12H	5.05
L12E	5.88
L12Q	5.19
R11D	5.08
R11C	4.96
R11A	4.43
R11L	4.31
R11Y	3.33
R11H	4.91
R11E	4.73
R11N	4.35

Variant	protein stability index
R11W	3.69
R11I	4.47
R11S	5.33
R11G	3.96
R11T	4.94
R11V	4.79
R11F	4.74
L20I	4.79
L20A	5.1
L20W	3.95
L20T	4.99
L20V	4.94
L20E	5.7
L20G	4.97
L20H	5.35
L20K	4.96
L20F	4.59
L20M	5.12
L20P	5.58
L20R	5.23
L20N	4.78
L20S	5.44

Variants of: B2
Assay: as above
Conditions: c terminus: a fixed tail appended

Variant	protein stability index
R20H	2.34
R20D	4.23
R20V	3.27
R20Q	1.89
E9G	1.71
Y5T	2.27
Y5H	3.91
Y5G	1.31
I11H	1.24
I11F	3.73
I11C	4.54
I11D	2.57
I11E	3.87
L14D	1.93
L14N	3.64
L14I	2.22
L14C	2.19
R18M	3.01
R18E	2.76
R18K	2.64
F2L	2.11
F2P	2
F2K	2.56
F2I	3.92
V1R	2.23
V1S	1.97
V1H	2.21

Variant	protein stability index
V1N	2.89
Y6F	1.65
Y6S	4.37
V8H	2.51
V8T	1.93
V8F	3.06
H17P	2.54
H17V	4.2
H17F	2.87
H17Y	2.69
L19W	3.75
S23E	2.12
S23N	1.82
S23Q	3.46
S23C	1.99
L12Q	3.48
L12A	2.33
L12H	3.78
L22F	3.34
L22N	1.32
L22G	2.34
L22E	2.43
L22I	3.59
E10H	2.68
E10I	2.56
E10C	1.36
V7S	4.39

Variant	protein stability index
V7C	3.58
I16W	3.5
I16M	2.9
I16L	2.92
I16N	3.35
Y21F	3.66
Y21V	3.28
Y21D	1.89
S24F	2.37
S24H	3.15
S24N	3.95
S24E	2.21
S24P	2.94
H15R	2.97
I3E	4
I3Y	3.43
E13W	3.26
E13D	2.04
E13S	1.92
E13F	3.37
F4S	2.7
F4M	2.56
F4W	1.29
F4Q	2.99
F4A	4
